Data as given in patent US20230321261A1 (published 2023).

Key:
[1] = molecular target: T1, Homo sapiens AXL - Mus musculus FN2 domain (p33-AXL-mFN2) (human (Homo sapiens) AXL with mouse …, UniProt P30530 26-894); assay: flow cytometry, transfected HEK293F cells
T1 construct: also called hsAXL-mmFN2
T1 chain: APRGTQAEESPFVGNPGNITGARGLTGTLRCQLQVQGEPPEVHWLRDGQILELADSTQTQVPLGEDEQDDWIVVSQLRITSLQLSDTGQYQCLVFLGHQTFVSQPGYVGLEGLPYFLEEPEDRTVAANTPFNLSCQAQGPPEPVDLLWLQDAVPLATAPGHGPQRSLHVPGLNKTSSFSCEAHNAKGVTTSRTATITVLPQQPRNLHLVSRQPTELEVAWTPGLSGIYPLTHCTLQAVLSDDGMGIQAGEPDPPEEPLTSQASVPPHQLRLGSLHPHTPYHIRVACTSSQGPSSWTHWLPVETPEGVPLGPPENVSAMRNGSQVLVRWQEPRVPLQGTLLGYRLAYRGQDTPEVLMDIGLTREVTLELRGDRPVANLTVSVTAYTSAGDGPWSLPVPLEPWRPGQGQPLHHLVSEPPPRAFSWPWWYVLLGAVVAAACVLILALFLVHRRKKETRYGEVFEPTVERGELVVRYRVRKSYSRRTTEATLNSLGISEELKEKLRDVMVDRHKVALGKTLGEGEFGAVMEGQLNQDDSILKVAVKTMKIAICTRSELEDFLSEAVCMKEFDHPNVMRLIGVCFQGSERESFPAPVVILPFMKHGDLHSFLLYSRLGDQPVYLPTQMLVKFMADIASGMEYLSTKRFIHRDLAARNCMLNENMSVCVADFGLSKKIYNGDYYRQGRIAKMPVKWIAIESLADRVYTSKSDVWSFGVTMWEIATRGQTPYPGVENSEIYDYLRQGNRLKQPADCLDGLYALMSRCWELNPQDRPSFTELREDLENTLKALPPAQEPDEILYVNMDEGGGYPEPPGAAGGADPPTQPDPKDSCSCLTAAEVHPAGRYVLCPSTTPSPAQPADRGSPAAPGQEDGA

[2] = molecular target: T2, Mus musculus AXL (p33-HAMm-AXL) (human (Homo sapiens) AXL with mouse …, UniProt Q00993 1-888 (mouse entry)); assay: flow cytometry, transfected HEK293F cells
T2 construct: also called hsAXL-mmECD
T2 chain: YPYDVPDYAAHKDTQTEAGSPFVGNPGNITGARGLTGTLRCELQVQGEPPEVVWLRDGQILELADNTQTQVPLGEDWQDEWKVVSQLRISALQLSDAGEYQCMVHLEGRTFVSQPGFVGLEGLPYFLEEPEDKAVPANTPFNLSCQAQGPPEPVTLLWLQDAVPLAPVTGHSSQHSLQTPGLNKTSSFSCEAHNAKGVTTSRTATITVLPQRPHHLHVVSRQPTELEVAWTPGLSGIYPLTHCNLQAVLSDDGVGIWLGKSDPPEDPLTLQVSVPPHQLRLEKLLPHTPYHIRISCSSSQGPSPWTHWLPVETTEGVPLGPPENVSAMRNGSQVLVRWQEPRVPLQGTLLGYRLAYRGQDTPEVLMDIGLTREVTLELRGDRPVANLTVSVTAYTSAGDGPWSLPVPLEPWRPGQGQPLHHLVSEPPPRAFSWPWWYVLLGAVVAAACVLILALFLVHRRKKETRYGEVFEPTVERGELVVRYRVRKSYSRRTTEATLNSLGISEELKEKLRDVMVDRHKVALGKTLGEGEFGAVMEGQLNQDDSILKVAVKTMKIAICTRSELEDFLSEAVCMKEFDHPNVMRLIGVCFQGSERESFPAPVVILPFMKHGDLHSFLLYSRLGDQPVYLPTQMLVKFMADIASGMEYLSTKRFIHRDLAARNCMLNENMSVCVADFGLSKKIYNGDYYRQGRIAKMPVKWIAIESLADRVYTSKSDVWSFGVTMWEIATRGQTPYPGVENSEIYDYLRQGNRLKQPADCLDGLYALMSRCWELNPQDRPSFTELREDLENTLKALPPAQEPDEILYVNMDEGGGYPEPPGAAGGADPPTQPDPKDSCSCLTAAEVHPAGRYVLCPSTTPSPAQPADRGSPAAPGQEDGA

B1: IgG1-AXL-726 (antibody, V domains shown)
VH: QVQLQQWGAGLLKPSETLSLTCAIDGGSFSGYYWSWIRQPPGKGLEWIGEISHSGRTNYNPSLKSRVTISIDTSKNQFSLKLSSVAAADTAVYYCARFITMIRGAIITHFDYWGQGALVTVSS
VL: DIQMTQSPSSLSASVGDRVTITCRASQGISSWLAWYQQKPEKAPKSLIYAASSLQSGVPSRFSGSGSGTDFTLTISSLQPEDFATYYCQQYHSYPYTFGQGTKLEIK
notes: expressed as IgG1,κ
Question: Does B1 bind [1]?
Answer: no binding (tested: 1 µg/mL)

B2: IgG1-AXL-137 (antibody, V domains shown)
VH: QVQLVQSGAEVKKPGSSVKVSCKASGGTFSRYAISWVRQAPGQGLEWMGRIIPIVGIANYAQKFQGRVTLTADKSTSTAYMELSSLRSEDTAVYYCAREAGYSSSWYAEYFQHWGQGTLVTVSS
VL: not shown
notes: expressed as IgG1,κ
Question: Does B2 bind [2]?
Answer: no binding (tested: 1 µg/mL)

B3: IgG1-AXL-061 (antibody, V domains shown)
VH: QVQLVQSGAEVKKPGASVKVSCKASGYAFTGYGISWVRQAPGQGLEWIGWISAYNGNTNYVQNLQDRVTMTTDTSTSTAYMELRSLRSDDTAVYYCARDHISMLRGIIIRNYWGQGTLVTVSS
VL: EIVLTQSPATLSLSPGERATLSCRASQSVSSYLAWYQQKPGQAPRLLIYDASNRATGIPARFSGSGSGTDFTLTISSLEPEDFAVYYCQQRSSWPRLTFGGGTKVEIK
notes: expressed as IgG1,κ
Question: Does B3 bind [2]?
Answer: no binding (tested: 1 µg/mL)

B4: IgG1-AXL-613 (antibody, V domains shown)
VH: QVQLVQSGAEVKKPGSSVKVSCKASGGTFSSYAINWMRQAPGQGLEWMGRIIPIFGIVNYAQKFQGRVTLTADKSTSTAYMELSSLRSEDTAVYYCARRGNYYGSGSPDVFDIWGQGTMVTVSS
VL: not shown
notes: expressed as IgG1,κ
Question: Does B4 bind [2]?
Answer: no binding (tested: 1 µg/mL)
